Measurements published in patent publication US7422862B2, “Methods for identifying modulators of apoptosis” (The Burnham Institute, priority 2001, dated 2008).
No end group written: not given here.

Assays:
Bax [1] = target: T1, Bax (Homo sapiens, UniProt Q07812); experiment: Co-immunoprecipitation of GFP-Humanin fusion polypeptides with Bax in transfected cells; type: binding; design: expressed in transfected cells; host or cells: HEK293T; key to Bax binding: +: ability to bind Bax was determined by co-immunoprecipitation assay; −: lacked Bax-binding activity; settings: for Bax binding: GFP-fusion polypeptides, co-immunoprecipitation
T1 sequence (Q07812 whole entry, species assumed, the tested form may be a part): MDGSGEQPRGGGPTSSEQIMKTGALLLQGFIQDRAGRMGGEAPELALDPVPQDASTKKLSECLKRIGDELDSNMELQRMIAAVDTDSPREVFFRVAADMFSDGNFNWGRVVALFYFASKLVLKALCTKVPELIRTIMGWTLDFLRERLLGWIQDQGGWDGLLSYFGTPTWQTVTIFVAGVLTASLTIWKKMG
Description: Humanin (HN) cDNA was sub-cloned into a Green Fluorescence Protein (GFP) expression vector GFP-Cl at the Xhol/Hind III sites, producing a GFP-HN fusion polypeptide. GFP and GFP-HN were transfected into 293T cells with pcDNA3-HA-Bax. Cell lysates from these cells were immunoprecipitated with anti-GFP antibody and subsequently blotted with anti-HA antibody. The lysates were also blotted with ani-GFP antibody to confirm polypeptide expression. […] The data shown were obtained using the cytosolic form of Humanin; however, both cytosolic and mitochondrial forms of Humanin were tested and the results were the same.
Co-immunoprecipitation assays were performed using Humanin polypeptides expressed as fusion polypeptides with the Green Fluorescent Protein (GFP) in human cells. Wild-type Humanin fused to GFP is referred to as GFP-HN and a mutant form of Humanin, where the cysteine at position 8 is replaced with proline, fused to GFP is referred to as GFP-C8P. […] Immunoblot analysis of lysates of the transfected cells confirmed production of all proteins. In addition, GFP-HN also coimmunoprecipitated endogenous Bax from cell lines, which contain relatively high levels of the Bax protein.
Immunoblotting and immunoprecipitations were performed as follows. Immunoblotting was performed as described previously (Fields and Song, Nature 340:245-246 (1989)). For co-immunoprecipitations, cells were cultured in 50 uM […] Valine Alanine Asparate fluoromethyl-ketone (zVAD-fmk) to prevent apoptosis. Cells were suspended in lysis buffer (50 mM Tris-HCl, pH7.4; 150 mM NaCl; 20 mM EDTA; 50 mM NaF; 0.5% NP-40; 0.1 mM Na3VO4; 20 ug/ml Leupeptin; 20 ug/ml Aprotinin; 1 mM DTT; and 1 mM PMSF). Lysates (200 ul diluted in 1 ml final volume of lysis buffer) were cleared by incubation with 15 ul of protein G-Sepharose 4B (Zymed) and then incubated with 15 ul of polyclonal antibody and 15 ul of protein G at 4° C. overnight. Beads were then washed 4 times with 1.5 mls lysis buffer before boiling in Laemmli sample buffer and performing SDS-PAGE/immunoblotting.
(§1) In order to explore whether a correlation exists between Humanin binding to Bax and Humanin-mediated suppression of apoptosis, Bax was co-expressed with various GFP-fusion polypeptides encoding wild-type, full-length Humanin or various truncation and site-specific mutants of Humanin (Table 1). Expression of all GFP-fusion polypeptides was confirmed by immunoblotting, and ability to bind Bax was determined by co-immunoprecipitation assay. Each Humanin mutant was scored for ability to suppress apoptosis induced by Bax over-expression by >50% using a 3:1 ratio of HN:Bax plasmid DNA. […] Based on these studies, an active region of the 24 amino-acid Humanin peptide, mapped to residues 7-17.

Bax [2] = target: T1, Bax; experiment: Suppression of apoptosis induced by Bax over-expression (Humanin mutants); type: cell-based; design: expressed in transfected cells; host or cells: HEK293T; settings: GFP-fusion polypeptides, 3:1 ratio of HN:Bax plasmid DNA
Method: (§2) Apoptosis assays were performed as follows. Both floating and adherent cells (after trypsinization) were collected 48 hr after transfection, fixed, and stained using 4′,6-diamidine-2′-phenylindole dihydrochloride (DAPI) for assessing apoptosis based on nuclear fragmentation and chromatin condensation (Fields and Song, supra (1989)).
as §1
Cell culture and transfections were performed as follows. CSM14.1, HCT116, Cos-7, and SF268 cells were cultured in DMEM high glucose media (Irvine Scientific, Santa Ana, Calif.) containing 10% fetal bovine serum (FBS). PC-3 cells were cultured with RPMI 1640 media containing 10% FBS. Transfection of cells was performed using SuperFect (Qiagen, Chatsworth, Calif.) or LipofectaminePLUS reagent ([…]).

Bax [3] = target: T1, Bax; experiment: Bax-induced apoptosis in transfected neuronal cells (DAPI staining); type: cell-based; design: expressed in transfected cells; settings: CSM14.1 cells, 48 h, DAPI
Method: (A) HEK293T cells were transfected with pcDNA3-HA-Bax together with plasmids encoding GFP, GFP-HN(N), or GFP-HN(M). Cell lysates were immunoprecipitated with polyclonal anti-GFP antibody. Immunoprecipitates (IP) or cell lysates were analyzed by immunoblotting using anti-HA or anti-GFP antibodies, respectively. (B) CSM14.1 neuronal cells were co-transfected with pcDNA3-HA-Bax together with plasmids encoding GFP, GFP-HN(N), or GFP-HN(M). Percent apoptosis was determined 48 h later by DAPI staining (mean±SD; n=3).
Rat neuronal cell line CSM14.1 cells were transfected with various plasmids using the Lipofectamine reagent (Invitrogen). For transfection, 10×10^5 cells were plated per well using 6 well plates. Each well received 1 μg DNA plus […] of Lipofectamine. After 24 hours of transfection, the percentage of cell death was determined using 4′-6-diamidino-2-phenylindole (DAPI) staining. […] The data shown were obtained using the cytosolic form of Humanin; however, both cytosolic and mitochondrial forms of Humanin were tested and the results were the same.
as §2
Since Humanin co-immunoprecipitates with Bax but not Bak, the effects of Humanin over-expression on apoptosis induced by these members of the Bcl-2 family was compared. […] Similar results were obtained regardless of whether Humanin was fused to the N- or C-terminus of GFP, with both of these GFP fusion polypeptides localizing to the cytosol of cells.

Substance | Bax binding (Bax [1]) | Bax suppression (Bax [2]) | suppression of Bax-induced apoptosis, nuclear vs mitochondria-encoded form (Bax [3]) | co-immunoprecipitation with tagged Bax (Bax [1]; 293T/HEK293T cells, anti-GFP immunoprecipitation)
1-15: GFP-fusion of Humanin truncation, residues 1-15 (MAPRGFSCLLLLTSE; also: fused to GFP; UniProt Q8IVG9 1-15, looked up, fragment) | − | − (failed to protect against Bax-induced apoptosis) |  | 
10-24: GFP-fusion of Humanin truncation, residues 10-24 (LLLTSEIDLPVKRRA; also: fused to GFP; UniProt Q8IVG9 10-24, looked up, fragment) | − | − (failed to protect against Bax-induced apoptosis) |  | 
13-24: GFP-fusion of Humanin truncation, residues 13-24 (TSEIDLPVKRRA; also: fused to GFP; UniProt Q8IVG9 13-24, looked up, fragment) | − | − (failed to protect against Bax-induced apoptosis) |  | 
1-17: GFP-fusion of Humanin truncation, residues 1-17 (MAPRGFSCLLLLTSEID; also: fused to GFP; UniProt Q8IVG9 1-17, looked up, fragment) | + | + (ability to suppress apoptosis induced by Bax over-expression by >50%) |  | 
3-17: GFP-fusion of Humanin truncation, residues 3-17 (PRGFSCLLLLTSEID; also: fused to GFP; UniProt Q8IVG9 3-17, looked up, fragment) | + | + (ability to suppress apoptosis induced by Bax over-expression by >50%) |  | 
GFP Only: Green Fluorescent Protein control without Humanin [reference compound] | − | − (failed to protect against Bax-induced apoptosis) |  | 
GFP-HN(M): mitochondria-encoded Humanin (SEQ ID NO:3, 21 amino acids, Met at position 16) as GFP fusion |  |  | suppressed to comparable extents | comparable amounts
4-24: GFP-fusion of Humanin truncation, residues 4-24 (RGFSCLLLLTSEIDLPVKRRA; also: fused to GFP; UniProt Q8IVG9 4-24, looked up, fragment) | + | + (ability to suppress apoptosis induced by Bax over-expression by >50%) |  | 
3-19: GFP-fusion of Humanin truncation, residues 3-19 (PRGFSCLLLLTSEIDLP; also: fused to GFP; UniProt Q8IVG9 3-19, looked up, fragment) | + | + (ability to suppress apoptosis induced by Bax over-expression by >50%) |  | 
3-18: GFP-fusion of Humanin truncation, residues 3-18 (PRGFSCLLLLTSEIDL; also: fused to GFP; UniProt Q8IVG9 3-18, looked up, fragment) | + | + (ability to suppress apoptosis induced by Bax over-expression by >50%) |  | 
1-12: GFP-fusion of Humanin truncation, residues 1-12 (MAPRGFSCLLLL; also: fused to GFP; UniProt Q8IVG9 1-12, looked up, fragment) | − | − (failed to protect against Bax-induced apoptosis) |  | 
3-24: GFP-fusion of Humanin truncation, residues 3-24 (PRGFSCLLLLTSEIDLPVKRRA; also: fused to GFP; UniProt Q8IVG9 3-24, looked up, fragment) | + | + (ability to suppress apoptosis induced by Bax over-expression by >50%) |  | 
7-24: GFP-fusion of Humanin truncation, residues 7-24 (SCLLLLTSEIDLPVKRRA; also: fused to GFP; UniProt Q8IVG9 7-24, looked up, fragment) | + | + (ability to suppress apoptosis induced by Bax over-expression by >50%) |  | 
